The target in the test is T1, GST-tagged Lamin A-C178 (250-428 aa), wild type (UniProt P02545 250-428).
T1 construct: Lamin A, fragment C178, residues 250-428; also called Lamin-A-C178-WT
T1 sequence (looked up): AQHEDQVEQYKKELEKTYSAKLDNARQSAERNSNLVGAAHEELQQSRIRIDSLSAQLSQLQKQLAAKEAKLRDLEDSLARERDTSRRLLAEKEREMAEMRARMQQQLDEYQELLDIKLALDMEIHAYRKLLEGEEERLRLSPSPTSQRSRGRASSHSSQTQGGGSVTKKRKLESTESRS
The test is described as follows: pull-down; 10 ug GST-tagged protein on glutathione agarose beads incubated with 10 ug soluble recombinant protein; PBS with 0.1% Triton X-100, 4 C, 4 h; three washes; SDS-PAGE with Coomassie staining; salt concentration also varied (Fig. S4B). Conditions: both partners purified.

Data on 1 molecule can be found in paper PMC11731451, “Phosphorylation of Lamin A/C regulates the structural integrity of the nuclear envelope” (The Journal of Biological Chemistry, 2024).

B1: His-tagged Lamin A-N125 (1-125 aa), wild type (domain or fragment, UniProt P02545 1-125, looked up)
chain: METPSQRRATRSGAQASSTPLSPTRITRLQEKEDLQELNDRLAVYIDRVRSLETENAGLRLRITESEEVVSREVSGIKAAYEAELGDARKTLDSVAKERARLQLELSKVREEFKELKARNTKKEG
notes: The cell work is in human HeLa cells; also called Lamin A-N125-WT; source: E. coli BL21, purified (Ni-NTA agarose, dialysed)
Regarding B1, the binding result is listed as “binds”.
